Assay results reported in US20190016816A1 (APTEVO RESEARCH AND DEVELOPMENT, published 2019).

Columns and labels:
human 5T4 on cells [1] = target: T1, human 5T4 on cells (human, UniProt Q13641 32-420); assay: flow cytometry, SKOV-3 cells (endogenous human 5T4), labelled anti-human IgG secondary, MFI (mean)
T1 construct: also called TPBG; hu5T4
T1 sequence: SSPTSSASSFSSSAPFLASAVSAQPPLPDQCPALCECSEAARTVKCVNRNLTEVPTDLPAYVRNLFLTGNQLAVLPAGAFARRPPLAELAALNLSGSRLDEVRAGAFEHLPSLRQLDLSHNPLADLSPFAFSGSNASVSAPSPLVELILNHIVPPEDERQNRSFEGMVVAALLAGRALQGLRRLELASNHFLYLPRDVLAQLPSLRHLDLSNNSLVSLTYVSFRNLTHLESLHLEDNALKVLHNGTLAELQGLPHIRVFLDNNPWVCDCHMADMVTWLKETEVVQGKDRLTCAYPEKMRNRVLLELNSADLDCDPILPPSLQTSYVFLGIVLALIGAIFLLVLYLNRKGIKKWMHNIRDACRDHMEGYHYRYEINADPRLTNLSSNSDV
Protocol: Binding studies were performed by standard flow cytometry-based staining procedures two cell lines expressing 5T4:CHO-K1 cells (obtained from Alligator) transduced with human or cynomolgus macaque 5T4 and SKOV-3 human ovarian adenocarcinoma cells which express (human) 5T4. All labeling and washes were performed in U-bottom 96-well plates in saline buffer with 0.1% BSA and 2 mM EDTA. Cell were plated at approximately 100,000 cells per well and incubated with a range of 100 nM to 0.05 nM concentrations of test molecules in […], for 30 minutes on ice. Cells were washed three times then incubated for another 30 min on ice with fluorescently-labeled secondary polyclonal antibody, F(ab′)² goat anti-human IgG (Jackson ImmunoResearch Laboratories). The cells were then washed twice and the samples acquired in a BD LSRII or a Symphony A3 flow cytometer. The sample files were analyzed using FlowJo software; the mean fluorescence intensity (MFI-mean) or median fluorescence intensity (MFI-median) of the live population of cells in each well was calculated after gating on live cells (forward vs side scatter). Nonlinear regression analysis to determine EC₅₀ values was performed in GraphPad Prism 6® graphing and statistics software.

FcγRIIa (CD32a His131) = target: T2, FcγRIIa (CD32a His131) (UniProt P12318 34-317, limits assumed); assay: flow cytometry, CHO cells stably expressing CD32a His131, fluorescent anti-human IgG secondary, MFI (mean)
T2 construct: whole, on cells; allotype His131 as printed
T2 sequence (looked up): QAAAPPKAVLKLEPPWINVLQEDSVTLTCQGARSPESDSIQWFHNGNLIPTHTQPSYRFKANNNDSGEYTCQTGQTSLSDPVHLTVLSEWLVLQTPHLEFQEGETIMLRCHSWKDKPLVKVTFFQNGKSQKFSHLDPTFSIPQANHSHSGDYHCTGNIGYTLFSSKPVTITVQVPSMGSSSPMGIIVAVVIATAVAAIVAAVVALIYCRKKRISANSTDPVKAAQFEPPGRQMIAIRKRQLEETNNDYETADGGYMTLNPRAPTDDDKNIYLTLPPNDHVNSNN
Text: (§1) ALG.APV-210 contains mutations introduced to prevent interaction with Fcγ receptors (FcγR) that could lead to FcγR-mediated T-cell activation or ADCC, ADCP, CDC etc. Binding of ALG.APV-210 was therefore tested on CHO cell transfectants stably expressing the following FcγR: FcγRI (CD64), FcγRIIa (CD32a His131), FcγRIIb (CD32b), FcγRIIIa (CD16a Val158 and CD16a Phe158), and FcγRIIIb (CD16b). Untransfected CHO cells were used as negative control. A control human IgG1 molecule was used as a positive control. Different concentrations of ALG.APV-210 or control IgG1 were incubated with the FcγR-expressing cell lines, washed, and labeled with a secondary anti-human IgG reagent. Binding of ALG.APV-210 and the control IgG1 was detected by flow cytometry.

FcγRIIIa (CD16a Val158) = target: T3, FcγRIIIa (CD16a Val158) (UniProt P08637 17-254, limits assumed); assay: flow cytometry, CHO cells stably expressing CD16a Val158, fluorescent anti-human IgG secondary, MFI (mean)
T3 construct: whole, on cells; allotype Val158 as printed
Text: as §1

human 5T4 on cells [2] = target: T1, human 5T4 on cells; assay: flow cytometry, HT-29 cells, streptavidin-PE, normalized MFI of 2 pooled experiments
Protocol: Prior to the FACS staining, all cell lines were characterized for their 5T4 expression levels using a receptor density kit (Quantum Simply Cellular, anti-human IgG, Bangs Laboratories, Inc). Adherent cell lines were cultured according to their supplier's instructions and were harvested from their cell culture flasks using Trypsin/EDTA, counted in R10 medium in a Burker chamber, and diluted in FACS buffer (PBS+0.5% BSA, 0.05% NaN₃) to a concentration of 4×10⁶ cells/mL. 50 μL (0.20×10⁶) of cell solution was added to a 96-well FACS staining plate (Falcon #351190). Cells were incubated for 20 min in 4° C. with 50 μL of the biotinylated ALG.APV-210 (2× final concentration). The antibodies were added in a serial dilution starting at 20 μg/mL titrating down in a 12 step ½ dilution down to 0.010 μg/mL. Following 2× washing with FACS buffer, cells were incubated for 30 min in 4° C. with 100 μL of a secondary antibody (streptavidin-PE, BD #554061, diluted 1/500). […] Cells were analysed for ALG.APV-210 binding using flow cytometry (FACSVerse) by gating on single cells. MFI values (secondary antibody only subtracted) from 1 out of 2 independent experiments, as well as normalized data and EC₅₀-values of pooled data from 2 experiments were determined and plotted using GraphPad Prism 7, non-linear regression log (agonist) vs. normalized response—variable slope.

T3 sequence (P08637 17-254 F176V limits assumed): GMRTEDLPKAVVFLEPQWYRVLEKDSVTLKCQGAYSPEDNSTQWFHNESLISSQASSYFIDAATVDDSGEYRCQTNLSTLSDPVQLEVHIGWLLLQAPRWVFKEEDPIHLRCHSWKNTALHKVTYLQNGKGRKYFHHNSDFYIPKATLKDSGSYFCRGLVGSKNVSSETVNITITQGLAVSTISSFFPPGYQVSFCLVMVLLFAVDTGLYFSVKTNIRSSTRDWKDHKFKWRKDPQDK

B1: ALG.APV-187 (bispecific antibody)
chain: EVQLLESGGGLVQPGGSLRLSCAASGFTFSHGSMYWVRQAPGKGLEWVSSISSGSGSTYYADSVKGRFTISHDNSKNTLYLQMNSLRAEDTAVYYCARSSYYGSYYSIDYWGQGTLVTVSSGGGGSGGGGSGGGGSGGGGSDIQMTQSPSSLSASVGDRVTITCRASQSISSYLNWYQQKPGKAPKLLIYAASSLQSGVPSRFSGSGSGTDFTLTISSLQPEDFATYYCQQYYDNLPTFGQGTKLEIKSSEPKSSDKTHTCPPCPAPEAAGAPSVFLFPPKPKDTLMISRTPEVTCVVVDVSHEDPEVKFNWYVDGVEVHNAKTKPREEQYNSTYRVVSVLTVLHQDWLNGKEYKCAVSNKALPAPIEKTISKAKGQPREPQVYTLPPSRDELTKNQVSLTCLVKGFYPSDIAVEWESNGQPENNYKTTPPVLDSDGSFFLYSKLTVDKSRWQQGNVFSCSVMHEALHNHYTQKSLSLSPGSGGGGSGGGGSGGGGSPSEVQLLESGGGLVQPGGSLRLSCAASGFTFSSYAMSWVRQAPGKCLEWVSAISGSGGSTYYADSVKGRFTISRDNSKNTLYLQMNSLRAEDTAVYYCARYYGGYYSAWMDYWGQGTLVTVSSGGGGSGGGGSGGGGSGGGGSDIQMTQSPSSLSASVGDRVTITCRASQSISSFLNWYQQKPGKAPKLLIYAASSLQSGVPSRFSGSGSGTDFTLTISSLQPEDSATYYCQQTYGYLHTFGCGTKLEIKR
notes: Optimized ADAPTIR scFv-Fc-scFv homodimer with stabilizing disulfide in the 1210 scFv
EC50 (human 5T4 on cells [1]): 9.2 nM
Maximum MFI (human 5T4 on cells [1]): 1800

B2: ALG.APV-210 (bispecific antibody)
chain: EVQLLESGGGLVQPGGSLRLSCAASGFTFSHGSMYWVRQAPGKGLEWVSSISSGSGSTYYADSVKGRFTISHDNSKNTLYLQMNSLRAEDTAVYYCARSSYYGSYYSIDYWGQGTLVTVSSGGGGSGGGGSGGGGSGGGGSDIQMTQSPSSLSASVGDRVTITCRASQSISSYLNWYQQKPGKAPKLLIYAASSLQSGVPSRFSGSGSGTDFTLTISSLQPEDFATYYCQQYYDNLPTFGQGTKLEIKEPKSSDKTHTCPPCPAPEAAGAPSVFLFPPKPKDTLMISRTPEVTCVVVDVSHEDPEVKFNWYVDGVEVHNAKTKPREEQYNSTYRVVSVLTVLHQDWLNGKEYKCAVSNKALPAPIEKTISKAKGQPREPQVYTLPPSRDELTKNQVSLTCLVKGFYPSDIAVEWESNGQPENNYKTTPPVLDSDGSFFLYSKLTVDKSRWQQGNVFSCSVMHEALHNHYTQKSLSLSPGSGGGGSGGGGSGGGGSPSEVQLLESGGGLVQPGGSLRLSCAASGFTFSSYAMSWVRQAPGKCLEWVSAISGSGGSTYYADSVKGRFTISRDNSKNTLYLQMNSLRAEDTAVYYCARYYGGYYSAWMDYWGQGTLVTVSSGGGGSGGGGSGGGGSGGGGSDIQMTQSPSSLSASVGDRVTITCRASQSISSFLNWYQQKPGKAPKLLIYAASSLQSGVPSRFSGSGSGTDFTLTISSLQPEDSATYYCQQTYGYLHTFGCGTKLEIKR
notes: Optimized ADAPTIR scFv-Fc-scFv homodimer with stabilizing disulfide in the 1210 scFv; also called 5T4-CD137 bispecific antibody
binding result (FcγRIIa (CD32a His131)): no binding (tested: 1000 nM)
binding result (FcγRIIIa (CD16a Val158)): no binding (tested: 1000 nM)

B3: biotinylated ALG.APV-210 (bispecific antibody)
chain: EVQLLESGGGLVQPGGSLRLSCAASGFTFSHGSMYWVRQAPGKGLEWVSSISSGSGSTYYADSVKGRFTISHDNSKNTLYLQMNSLRAEDTAVYYCARSSYYGSYYSIDYWGQGTLVTVSSGGGGSGGGGSGGGGSGGGGSDIQMTQSPSSLSASVGDRVTITCRASQSISSYLNWYQQKPGKAPKLLIYAASSLQSGVPSRFSGSGSGTDFTLTISSLQPEDFATYYCQQYYDNLPTFGQGTKLEIKEPKSSDKTHTCPPCPAPEAAGAPSVFLFPPKPKDTLMISRTPEVTCVVVDVSHEDPEVKFNWYVDGVEVHNAKTKPREEQYNSTYRVVSVLTVLHQDWLNGKEYKCAVSNKALPAPIEKTISKAKGQPREPQVYTLPPSRDELTKNQVSLTCLVKGFYPSDIAVEWESNGQPENNYKTTPPVLDSDGSFFLYSKLTVDKSRWQQGNVFSCSVMHEALHNHYTQKSLSLSPGSGGGGSGGGGSGGGGSPSEVQLLESGGGLVQPGGSLRLSCAASGFTFSSYAMSWVRQAPGKCLEWVSAISGSGGSTYYADSVKGRFTISRDNSKNTLYLQMNSLRAEDTAVYYCARYYGGYYSAWMDYWGQGTLVTVSSGGGGSGGGGSGGGGSGGGGSDIQMTQSPSSLSASVGDRVTITCRASQSISSFLNWYQQKPGKAPKLLIYAASSLQSGVPSRFSGSGSGTDFTLTISSLQPEDSATYYCQQTYGYLHTFGCGTKLEIKR
notes: also called ALG.APV-210 (biotinylated for FACS detection)
EC50 (human 5T4 on cells [2]): 12 nM
